Test system: Escherichia coli TOP10
Assay: shrunken log2 fold change of peptide-encoding DNA abundance (4.5 h post-induction vs induction); higher = less antimicrobial activity (less host growth inhibition)
Details: time post-induction: 4.5 h; library: site-saturation at positions 5, 18, 19, 20
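Further: peptides expressed intracellularly from a pBAD plasmid library in pooled LB shake-flask culture, induced with 0.3% L-arabinose, DNA abundance read by NGS, three biological replicates, DESeq2 with apeglm shrinkage.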

Row | Sequence | shrunken log2 fold change
1 | RRIRPRPPRLPRPRPRPAVYPRP | -0.0879
2 | RRIRTRPPRLPRPRPRPFYKPRP | -0.6
3 | RRIRDRPPRLPRPRPRPEAMPRP | -0.00943
4 | RRIRSRPPRLPRPRPRPCERPRP | -0.0685
5 | RRIRWRPPRLPRPRPRPCREPRP | -0.189
6 | RRIRNRPPRLPRPRPRPYYFPRP | -0.695
7 | RRIRHRPPRLPRPRPRPQLMPRP | -0.351
8 | RRIRRRPPRLPRPRPRPETYPRP | 0.0872
9 | RRIRNRPPRLPRPRPRPHDFPRP | 0.137
10 | RRIRERPPRLPRPRPRPILFPRP | -0.57
11 | RRIRPRPPRLPRPRPRPISFPRP | -0.101
12 | RRIRERPPRLPRPRPRPPIQPRP | -0.27
13 | RRIRHRPPRLPRPRPRPFNRPRP | 0.00911
14 | RRIRMRPPRLPRPRPRPWGCPRP | 0.311
15 | RRIRIRPPRLPRPRPRPDINPRP | -0.0484
16 | RRIRSRPPRLPRPRPRPPAAPRP | 1.1
17 | RRIRKRPPRLPRPRPRPHLDPRP | 0.00976
18 | RRIRRRPPRLPRPRPRPAWGPRP | 0.508
19 | RRIRGRPPRLPRPRPRPFKYPRP | -0.221
20 | RRIRKRPPRLPRPRPRPLSCPRP | 0.0262
21 | RRIRQRPPRLPRPRPRPNKMPRP | -0.0321
22 | RRIRERPPRLPRPRPRPRQKPRP | 0.0386
23 | RRIRMRPPRLPRPRPRPLRWPRP | 1.32
24 | RRIRFRPPRLPRPRPRPEQSPRP | 0.0672
25 | RRIRERPPRLPRPRPRPYACPRP | -0.0634

Row | Sequence | shrunken log2 fold change
26 | RRIRSRPPRLPRPRPRPKHSPRP | -0.572
27 | RRIRRRPPRLPRPRPRPNRDPRP | -0.062
28 | RRIRPRPPRLPRPRPRPCASPRP | -0.0883
29 | RRIRERPPRLPRPRPRPQDGPRP | -0.113
30 | RRIRWRPPRLPRPRPRPFCKPRP | -0.13
31 | RRIRARPPRLPRPRPRPVHVPRP | 0.00822
32 | RRIRDRPPRLPRPRPRPVWKPRP | -0.0168
33 | RRIRNRPPRLPRPRPRPLLRPRP | -0.267
34 | RRIRRRPPRLPRPRPRPNVLPRP | -0.185
35 | RRIRARPPRLPRPRPRPHECPRP | 0.423
36 | RRIRQRPPRLPRPRPRPMYFPRP | -0.448
37 | RRIRGRPPRLPRPRPRPAPWPRP | 0.891
38 | RRIRFRPPRLPRPRPRPLCQPRP | -0.12
39 | RRIRNRPPRLPRPRPRPCPFPRP | -0.208
40 | RRIRMRPPRLPRPRPRPDRHPRP | 0.0052
41 | RRIRGRPPRLPRPRPRPWASPRP | -0.00862
42 | RRIRARPPRLPRPRPRPAMLPRP | 0.226
43 | RRIRERPPRLPRPRPRPADMPRP | -0.0494
44 | RRIRTRPPRLPRPRPRPPMTPRP | 0.172
45 | RRIRNRPPRLPRPRPRPHENPRP | -0.164
46 | RRIRFRPPRLPRPRPRPHHDPRP | -0.379
47 | RRIRVRPPRLPRPRPRPHQPPRP | 0.0593
48 | RRIRLRPPRLPRPRPRPMQLPRP | -0.21
49 | RRIRIRPPRLPRPRPRPVQSPRP | -0.168
50 | RRIRNRPPRLPRPRPRPSMPPRP | -0.139

Row | Sequence | shrunken log2 fold change
51 | RRIRPRPPRLPRPRPRPPWNPRP | 0.77
52 | RRIRIRPPRLPRPRPRPEHAPRP | 0.00666
53 | RRIRERPPRLPRPRPRPYRYPRP | -0.107
54 | RRIRCRPPRLPRPRPRPEFKPRP | 0.0244
55 | RRIRERPPRLPRPRPRPKKMPRP | -0.478
56 | RRIRSRPPRLPRPRPRPVAHPRP | -0.0951
57 | RRIRLRPPRLPRPRPRPADNPRP | -0.26
58 | RRIRDRPPRLPRPRPRPPISPRP | 0.024
59 | RRIRQRPPRLPRPRPRPRTCPRP | -0.576
60 | RRIRERPPRLPRPRPRPLWDPRP | 0.108
61 | RRIRIRPPRLPRPRPRPMYSPRP | -0.11
62 | RRIRQRPPRLPRPRPRPDFCPRP | -0.129
63 | RRIRLRPPRLPRPRPRPAYYPRP | -0.253
64 | RRIRERPPRLPRPRPRPHCHPRP | -0.657
65 | RRIRNRPPRLPRPRPRPQHIPRP | -0.114
66 | RRIRIRPPRLPRPRPRPMKVPRP | -0.00968
67 | RRIRERPPRLPRPRPRPVFDPRP | -0.461
68 | RRIRERPPRLPRPRPRPLQKPRP | -0.113
69 | RRIRGRPPRLPRPRPRPIHDPRP | -0.126
70 | RRIRERPPRLPRPRPRPQMQPRP | -0.173
71 | RRIRNRPPRLPRPRPRPCGLPRP | 0.0441
72 | RRIRNRPPRLPRPRPRPAPLPRP | 0.196
73 | RRIRARPPRLPRPRPRPIKDPRP | 0.0786
74 | RRIRCRPPRLPRPRPRPHLLPRP | -0.375
75 | RRIRHRPPRLPRPRPRPDPMPRP | 0.0718

Reference: the supplement of paper PMC9112550, “Optimization of the antimicrobial peptide Bac7 by deep mutational scanning” (BMC Biology, 2022)
